Results published in patent publication US6624144B1, “Matrix metalloproteinase inhibitors and down-regulators” (CTT Cancer Targeting Technologies Oy, priority 1998, dated 2003).
Bridge positions count the residues as written; N and C are the ends. Ends that are not written are not given here. Peptide text beside a SMILES is read from it.

Columns and labels:
[1] = Solubility in aqueous buffers
APMA-activated MMP-9 [2] = target: T1, APMA-activated MMP-9 (Homo sapiens, UniProt P14780); assay: [125I]-gelatin degradation by APMA-activated MMP-9; format: biochemical
T1 construct: from tissue; host or cells: human neutrophils
Procedure: (§1) ProMMP-9 was purified from human neutrophils and activated with aminophenyl mercuric acetate (APMA) essentially as described by Hibbs et al. (1985). For the selection of MMP-9 binding phage, APMA-activated MMP-9 was coated on microtiter wells overnight at 4° C. using a concentration of 1 μg/ml, after which the […] were saturated with 5 % bovine serum albumin. In the first panning, the library was incubated overnight at 4° C. in 50 mM Tris-HCl/0.1 M NaCl buffer (pH 7.5) (TBS) containing 1% bovine serum albumin, and after extensive washing the bound phage were eluted with low pH buffer. In the subsequent pannings, the amplified phage were allowed to bind for 1 h at 22° C. […] The bound phage were quantitated by adding 50 ng per well of anti-M13 antibody (Pharmacia, Uppsala, Sweden) labeled with an Europium-chelate (Wallac Ltd., Turku, Finland). After incubation for 45 min followed by washing, the fluorescence was measured with 1230 Arcus fluorometer (Wallac Ltd., Turku, Finland).
(§2) For the gelatin and casein degradation assays, purified MMP-2 and MMP-9 (50-100 ng) were first incubated for 60 min with various concentrations of the peptide inhibitors, after which a 21 kDa β-casein (52 μM) or [^125I]-gelatin substrate was added. After incubation for 2 h at 22 ° C., degradation of the casein was analyzed by SDS gel electrophoresis. […]

proMMP-9 [3] = target: T2, proMMP-9 (Homo sapiens, UniProt P14780); assay: [125I]-gelatin degradation by proMMP-9 (autoactivating); format: biochemical
T2 construct: from tissue; host or cells: human neutrophils
Procedure: as §1, §2

proMMP-2 [4] = target: T3, proMMP-2 (Homo sapiens, UniProt P08253); assay: β-casein degradation by proMMP-2 not preactivated with APMA; format: biochemical
T3 construct: endogenous in cells; host or cells: human gingival fibroblasts (serum-free culture medium)
T3 sequence (P08253 30-660 limits assumed): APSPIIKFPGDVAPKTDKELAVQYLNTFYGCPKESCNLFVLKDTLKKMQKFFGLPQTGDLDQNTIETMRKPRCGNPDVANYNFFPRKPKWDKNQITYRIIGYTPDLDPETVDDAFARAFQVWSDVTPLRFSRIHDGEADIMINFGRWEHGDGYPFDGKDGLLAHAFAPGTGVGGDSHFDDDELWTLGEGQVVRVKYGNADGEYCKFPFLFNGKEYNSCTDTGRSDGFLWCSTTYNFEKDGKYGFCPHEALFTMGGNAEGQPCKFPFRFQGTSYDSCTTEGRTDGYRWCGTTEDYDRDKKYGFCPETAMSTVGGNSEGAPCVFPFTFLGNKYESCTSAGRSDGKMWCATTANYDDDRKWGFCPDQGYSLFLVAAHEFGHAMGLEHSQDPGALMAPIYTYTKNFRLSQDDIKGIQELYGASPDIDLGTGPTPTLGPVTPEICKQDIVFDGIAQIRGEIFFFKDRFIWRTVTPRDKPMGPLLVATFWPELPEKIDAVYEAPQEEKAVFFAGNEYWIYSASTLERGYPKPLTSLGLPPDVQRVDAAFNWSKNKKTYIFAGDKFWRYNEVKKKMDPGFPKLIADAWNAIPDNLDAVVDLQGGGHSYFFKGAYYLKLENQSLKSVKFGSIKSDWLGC
Procedure: (§3) After 1 h pretreatment with the peptides, APMA-activated MMP-2 (A, C) or proMMP-2 (B, D) was incubated with the casein for 2 h. 52 μM β-casein was used as substrate for MMPs. Shown is Coomassie Blue-staining of the 21 kD β-casein (lane 1) and its fragments (lanes 2-9) resolved by SDS-PAGE (A, B); CTTHWGFTLC(SEQ ID NO:3) was used at the concentrations of (2) 0 μg/ml, (3) 75, (4) 50, (5) 25, (6) 10, (7) 5, (8) 1, and (9) 0.5 μg/ml in the lanes 2-9, respectively. (C, D); the concentrations of CRRHWGFEFC(SEQ ID. NO:2) were 0, 250, 100, 50, 25, 10, 1, and 0.5 μg/ml, respectively.
(§4) For the gelatin and casein degradation assays, purified MMP-2 and MMP-9 (50-100 ng) were first incubated for 60 min with various concentrations of the peptide inhibitors, after which a 21 kDa β-casein (52 μM) or [^125I]-gelatin substrate was added. After incubation for 2 h at 22 ° C., degradation of the casein was analyzed by SDS gel electrophoresis. The degradation of [^125I]-gelatin was determined by counting radioactivity in the supernatant after precipitation of undegraded gelatin with 20% trichloroacetic acid.
(§5) We also used β-casein as a substrate for the gelatinases and analyzed the degradation products by SDS gel electrophoresis.

MMP-2 = target: T4, MMP-2 (Homo sapiens, UniProt P08253); assay: β-casein degradation by MMP-2 (SDS gel); format: biochemical; conditions: APMA-activated MMP-2, β-casein
T4 construct: endogenous in cells; host or cells: human gingival fibroblasts (serum-free culture medium)
T4 sequence (P08253 110-660): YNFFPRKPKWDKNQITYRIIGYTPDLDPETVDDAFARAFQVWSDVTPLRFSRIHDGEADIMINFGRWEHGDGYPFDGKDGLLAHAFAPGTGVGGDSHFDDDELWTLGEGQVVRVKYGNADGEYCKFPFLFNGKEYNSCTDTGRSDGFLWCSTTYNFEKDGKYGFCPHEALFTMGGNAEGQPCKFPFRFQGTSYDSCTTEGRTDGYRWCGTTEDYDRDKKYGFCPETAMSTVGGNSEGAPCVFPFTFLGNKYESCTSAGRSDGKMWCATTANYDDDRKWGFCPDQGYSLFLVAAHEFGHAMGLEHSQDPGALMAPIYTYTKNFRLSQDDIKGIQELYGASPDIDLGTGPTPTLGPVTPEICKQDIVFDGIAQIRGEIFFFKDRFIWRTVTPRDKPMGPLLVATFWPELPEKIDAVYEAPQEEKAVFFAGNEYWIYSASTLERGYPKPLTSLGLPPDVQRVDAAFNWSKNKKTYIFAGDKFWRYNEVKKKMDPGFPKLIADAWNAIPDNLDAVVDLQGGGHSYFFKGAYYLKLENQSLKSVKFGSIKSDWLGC
Procedure: as §3, §4, §5

[5] = system: HT1080 fibrosarcoma cells; assay: Transwell random migration of HT1080 cells; format: cell-based; conditions: 500 μg/ml, control peptides
Procedure: The endothelial cell line HUVEC (human umbilical vein endothelial cells, obtained from the ATCC, Rockville, Md.) was grown in RPMI 1640 medium containing penicillin (100 units/ml), streptomycin (100 μg/ml), 10 mM HEPES, 30 μg/ml endothelial cell growth supplement (Biomedical Technologies, Stoughton, Mass.), and 20% fetal calf serum. The HT1080 fibrosarcoma cells (ATCC, Rockville, Md.), C8161 melanoma cells and Eahy926 cells (derivative of HUVEC) were cultured in Dulbecco's modified Eagle's medium containing the antibiotics, 10% fetal calf serum, and hypoxanthine/aminopterin/thymidine additive with the Eahy926 cells. Cultures of cells were harvested with trypsin-EDTA (endothelial cells) or EDTA alone (other cells), washed, and resuspended in the full serum-containing media as indicated above.
Random cell migration was studied using […] pore size and 6.5 mm diameter Transwell inserts (Costar, Cambridge, Mass.) that were equilibrated in the serum-containing medium for 2 h before use. Tumor cell invasion was studied using 6.4 mm diameter Boyden chambers precoated with Matrigel (Becton Dickinson, Bedford, MA) and equilibrated in the serum-containing medium. […] Cells were removed from the upper surface of the membrane with a cotton swab, and the cells migrated on the undersite of the membrane were counted microscopically, or alternatively quantitated by scanning.

APMA-activated MMP-2 [6] = target: T5, APMA-activated MMP-2 (Homo sapiens, UniProt P08253); assay: [125I]-gelatin degradation by APMA-activated MMP-2; format: biochemical; conditions: 10 μg/ml
T5 construct: endogenous in cells; host or cells: human gingival fibroblasts (serum-free culture medium)
T5 sequence (P08253 110-660): T4 sequence (P08253 110-660)
Procedure: as §4
(§6) proMMP-2 was purified from serum-free culture medium of human gingival fibroblasts.

proMMP-2 [7] = target: T3, proMMP-2; assay: [125I]-gelatin degradation by proMMP-2; format: biochemical; conditions: 10 μg/ml
Procedure: as §4, §6

[8] = Toxicity when injected into animals; conditions: in vivo
proMMP-2 [9] = target: T6, proMMP-2 (human, UniProt P08253 30-660); assay: cell-based or functional assay
T6 sequence (looked up): T3 sequence (P08253 30-660 limits assumed)

APMA-activated MMP-2 [10] = target: T7, APMA-activated MMP-2 (human, UniProt P08253 30-660); assay: cell-based or functional assay
T7 sequence (looked up): T3 sequence (P08253 30-660 limits assumed)

APMA-activated MMP-9 [11] = target: APMA-activated MMP-9 (human, UniProt P14780 94-707); assay: cell-based or functional assay
proMMP-9 [12] = target: T8, proMMP-9 (human, UniProt P14780 20-707); assay: phage binding (attachment) assay
T8 construct: also called 92 kDa proMMP-9
T8 sequence (P14780 20-707): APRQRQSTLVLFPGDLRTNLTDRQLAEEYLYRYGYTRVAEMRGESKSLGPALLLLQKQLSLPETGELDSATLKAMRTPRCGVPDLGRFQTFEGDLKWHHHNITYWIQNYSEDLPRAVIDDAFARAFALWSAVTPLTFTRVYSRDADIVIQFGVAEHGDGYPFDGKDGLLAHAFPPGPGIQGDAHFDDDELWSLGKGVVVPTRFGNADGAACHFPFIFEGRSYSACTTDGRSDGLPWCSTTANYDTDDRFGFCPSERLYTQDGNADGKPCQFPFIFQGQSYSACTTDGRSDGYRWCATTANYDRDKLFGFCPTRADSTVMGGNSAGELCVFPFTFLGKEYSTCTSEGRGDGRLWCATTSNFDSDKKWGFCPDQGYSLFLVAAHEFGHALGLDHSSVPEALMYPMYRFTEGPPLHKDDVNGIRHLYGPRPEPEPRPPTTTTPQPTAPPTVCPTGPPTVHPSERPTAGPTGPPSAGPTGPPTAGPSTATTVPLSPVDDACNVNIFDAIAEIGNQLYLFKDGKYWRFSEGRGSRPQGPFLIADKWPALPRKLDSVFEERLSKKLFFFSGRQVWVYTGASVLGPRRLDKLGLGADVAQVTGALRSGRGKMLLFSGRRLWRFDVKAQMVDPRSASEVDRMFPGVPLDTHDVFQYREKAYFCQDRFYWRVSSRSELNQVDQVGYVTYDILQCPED

T2 sequence (P14780 20-707 limits assumed): as the sequence (P14780 20-707) above
T1 sequence (P14780 107-707 limits assumed): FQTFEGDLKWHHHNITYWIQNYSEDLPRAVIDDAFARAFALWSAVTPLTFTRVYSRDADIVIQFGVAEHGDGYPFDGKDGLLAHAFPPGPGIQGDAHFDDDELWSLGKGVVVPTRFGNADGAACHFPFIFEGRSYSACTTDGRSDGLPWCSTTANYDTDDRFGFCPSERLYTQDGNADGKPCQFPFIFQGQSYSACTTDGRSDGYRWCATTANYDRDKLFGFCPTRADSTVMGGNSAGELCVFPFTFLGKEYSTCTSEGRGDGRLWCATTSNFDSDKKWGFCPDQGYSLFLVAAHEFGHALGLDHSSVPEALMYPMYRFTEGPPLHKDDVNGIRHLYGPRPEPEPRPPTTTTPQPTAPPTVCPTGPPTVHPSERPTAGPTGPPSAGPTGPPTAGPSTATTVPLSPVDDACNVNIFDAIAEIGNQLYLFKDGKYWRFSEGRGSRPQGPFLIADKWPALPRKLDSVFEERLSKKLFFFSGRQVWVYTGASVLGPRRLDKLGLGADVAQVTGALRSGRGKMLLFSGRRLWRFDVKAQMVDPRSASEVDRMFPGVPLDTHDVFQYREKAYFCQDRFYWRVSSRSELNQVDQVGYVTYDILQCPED

RAVRALWRC [RAVRALWRC]
solubility [1]: highly soluble

N=C(N)NCCC[C@@H]1NC(=O)[C@H](CCCNC(=N)N)NC(=O)[C@@H](N)CSSC[C@@H](C(=O)O)NC(=O)[C@H](Cc2ccccc2)NC(=O)[C@H](CCC(=O)O)NC(=O)[C@H](Cc2ccccc2)NC(=O)CNC(=O)[C@H](Cc2c[nH]c3ccccc23)NC(=O)[C@H](Cc2c[nH]cn2)NC1=O [CRRHWGFEFC] (H-CRRHWGFEFC-OH; disulfide 1-10; N-terminus and C-terminus assumed)
IC50 (APMA-activated MMP-9 [2]; APMA-activated MMP-9, read-out: half-maximal inhibitory value (IC50), [125I]-gelatin degradation (converted)): ~7.47 µM
inhibition of proMMP-9 gelatinolytic activity (proMMP-9 [3]; peptide 10 μg/ml): more than 50%
IC50 (proMMP-2 [4]): 18.7 µM
IC50 (MMP-2): ~18.7 µM

EVGTGSCNLECVSTNPLSGTEQ (Targeted to Homo sapiens)
solubility [1]: highly soluble
effect on cell migration [5]: None of these control peptides affected cell migration

linear CRRHWGFEFC: linearized version of CRRHWGFEFC prepared by reducing and alkylating the cysteine residues (also: cysteines reduced and alkylated, alkylating agent not given here)
gelatinolysis by APMA-activated MMP-2 (APMA-activated MMP-2 [6]): virtually inactive
inhibitory activity against APMA-activated MMP-9 gelatinolysis (APMA-activated MMP-9 [2]; 10 μg/ml (FIG. 2)): loss of inhibitory activity
inhibitory activity against proMMP-9 gelatinolysis (proMMP-9 [3]; 10 μg/ml (FIG. 2)): loss of inhibitory activity
gelatinolysis by proMMP-2 (proMMP-2 [7]): virtually inactive

CQWNNDNPLFKEAEEEVMNPKFAES
solubility [1]: highly soluble

CC(C)C[C@@H]1NC(=O)[C@H]([C@@H](C)O)NC(=O)[C@H](Cc2ccccc2)NC(=O)CNC(=O)[C@H](Cc2c[nH]c3ccccc23)NC(=O)[C@H](Cc2c[nH]cn2)NC(=O)[C@H]([C@@H](C)O)NC(=O)[C@H]([C@@H](C)O)NC(=O)[C@@H](N)CSSC[C@@H](C(=O)O)NC1=O [CTTHWGFTLC] (H-CTTHWGFTLC-OH; disulfide 1-10; N-terminus and C-terminus assumed)
toxicity when injected into animals [8]: no toxicity
IC50 (proMMP-2 [4]): 4.29 µM
IC50 (MMP-2): ~4.29 µM

CTTHWGFTLC (disulfide 1-10 (inferred)) [cyclic CTTHWGFTLC synthetic peptide]
IC50, β-casein degradation (SDS-PAGE) (proMMP-2 [9]): 5 µg/mL
IC50, β-casein degradation (SDS-PAGE) (APMA-activated MMP-2 [10]): ~5 µg/mL

CRRHWGFEFC (disulfide 1-10 (inferred)) [cyclic CRRHWGFEFC synthetic peptide]
IC50, β-casein degradation (SDS-PAGE) (proMMP-2 [9]): 25 µg/mL
IC50, [125I]-gelatin degradation assay (APMA-activated MMP-9 [11]): ~10 µg/mL
IC50, β-casein degradation (SDS-PAGE) (APMA-activated MMP-2 [10]): ~25 µg/mL

B1: phage clone displaying CRRHWGFEFC (from the CX9 library) (peptide)
peptide: CRRHWGFEFC
notes: not shown: phage coat protein to which the peptide is fused
binding result (proMMP-9 [12]): no binding

B2: phage clone displaying CSLHWGFWWC (from the CX9 library) (peptide)
peptide: CSLHWGFWWC
notes: as for B1
binding result (proMMP-9 [12]): no binding
